From publication PMC4955127 (Biotechnology for Biofuels, 2016)

B1: Bgl3A (Evansstolkia leycettana) (protein)
chain: YGFGGSGWDAAYGRAKAALNKLNQTEKVGIVTGVKWMGGPCVGNTYKPSSIDYPSLCLQDSPLGVRFANPVTAFPAGINAGATWDRSLINARGAAMGAEAKGLGVNVQLGPVAGPLGKNPNSGRIWEGFSNDPYLSGVAMEETIAGMQGSGVQACAKHYIGNEQEHNRETISSNIDDRTLHELYVWPFMNAVKANVASVMCSYNKVNGSWSCENDALLNGLLKTELGFPGYIMSDWNAQHTTVNSANSGLDMTMPGSDFNNPPGSIYWGPNLEAAVANGSVPQSRLDDMVTRILASWHLVGQDEGYPPVAFSSWNGGKANVDVTGDHKSVVRAVARDSTVLLKNDNNALPLRKPKSLAIIGQDATVNPAGPNACSDRGCDTGTLAMGWGSGTAQFPYIVGPLDAIQSQAAADGTNITTSTTDDTTAAASAAASAGTAIVFINSDSGEGYITVEGNAGDRNNLDPWHNGNELVQAVAAANKNVIVVVHSVGPVILETILAQPNVKAIVWPGLPGQESGNALVDVLYGSTSPSGKLPYTIAKQFSDYGTTWTTSLVDDFTEGLFIDYRHFDENNITPRYEFGYGLSYTTFKYSDLDVNVQARPGAAEGPIVPGGVKELFDTVGTVTVTVQNSGKVAGAEVAQLYIGLPDSAPSTPPKQLRGFQKLHLAPGQREGATFELTRRDISYWDVQQQKWVVPSGTFKVYVGSSSRDIREQGSFRI

Assays:
Bgl3A = target: T1, Bgl3A (Evansstolkia leycettana, UniProt A0A1B0VFN7); test: glucose inhibition of pNPG hydrolysis; format: biochemical; conditions: product inhibition; substrate pNPG
T1 construct: mature enzyme without native signal peptide (residues 1-19 of 737 removed)
T1 sequence (A0A1B0VFN7 20-737): B1 chain

purified protein = substrate: O=[N+]([O-])c1ccc(O[C@@H]2O[C@H](CO)[C@@H](O)[C@H](O)[C@H]2O)cc1; test: purified protein; conditions: 100 mM Na2HPO4-citric acid, optimal conditions (pH 4.5, 75 °C), 5 min

Molecule | Ki (Bgl3A) | Km (purified protein) | Vmax (purified protein) | kcat (purified protein) | kcat/Km (purified protein)
OC[C@H]1OC(O)[C@H](O)[C@@H](O)[C@@H]1O (some centres unmarked) [glucose] | 14 mM |  |  |  | 
B1 |  | 180 µM | 1310 µmol/min/mg | 1660 s⁻¹ | 9.1e+06 M⁻¹ s⁻¹
